According to the supplement of paper PMC7877785:
± gives the uncertainty stated by the source.

Assay: self-splicing fitness, log relative to wild type (ln ratio); higher = more splicing; Tetrahymena group I intron in knt gene, E. coli kanamycin selection, DiMSum; sequences stand for … in CUCUCU…GGAGGGAAAAGUUAUCAGGCAUGCACCUGGUAGCUAGUCUUUAAACCAAUAGAUUGCAUCGGUUUAAAAGGCAAGACCGUCAAAUUGCGGGAAAGGGGUCAACAGCCGUUCAGUACCAAGUCUCAGGGGAAACUUUGAGAUGGCCUUGCAAAGGGUAUGGUAAUAAGCUGACGGACAUGGUCCUAACCACGCAGCCAAGUCCUAAGUCAACAGAUCUUCUGUUGAUAUGGAUGCAGUUCACAGACUAAAUGUCGGUCGGGGAAGAUGUAUUCUUCUCAUAAGAUAUAGUCGGACCUCUCCUUAAUGGGAGCUAGCGGAUGAAGUGAUGCAACACUGGAGCCGCUGGGAACUAAUUUGUAUGCGAAAGUAUAUUGAUUAGUUUUGGAGUACUCGUGGUCG
How it was run: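 The eight P1ex-region nucleotides of an intron in the knt kanamycin-resistance gene on pET-22b(+) were all randomised and the library put into E. coli BL21(DE3). Six replicate transformations were grown overnight at 37°C or 30°C on LB agar with or without 25 μg/mL kanamycin, together with 100 μg/mL carbenicillin, 50 μM IPTG and 0.2% rhamnose. Colonies were pooled and amplicon-sequenced on an Illumina HiSeq 2500. Fitness from DiMSum is the error-weighted combination of wild-type-normalised replicate fold changes, kanamycin over none.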

| Sequence | self-splicing fitness (ln) (30 °C) | self-splicing fitness (ln) (37 °C) |
| --- | --- | --- |
| GAUUAGCAAUAUUACGGGCG | -1.63 ± 0.15 | -1.33 ± 0.17 |
| GGCAAGCAAUAUUACGCGGC | -3.13 ± 0.28 | -2.88 ± 0.41 |
| CGAGAGCAAUAUUACGGACU | -1.89 ± 0.29 | -2.14 ± 0.38 |
| GAAUAGCAAUAUUACGUGGG | -3.86 ± 0.21 | -2.81 ± 0.19 |
| CAGGAGCAAUAUUACGUAGU | -3.42 ± 0.17 | -1.55 ± 0.13 |
| GACUAGCAAUAUUACGUGGA | -1.46 ± 0.13 | -1.07 ± 0.16 |
| CGGCAGCAAUAUUACGACCU | -0.341 ± 0.089 | -0.0632 ± 0.11 |
| AACUAGCAAUAUUACGCUAC | -3.46 ± 0.22 | -1.34 ± 0.14 |
| CGCGAGCAAUAUUACGGCAC |  | -1.87 ± 0.41 |
| CAACAGCAAUAUUACGUCUC | -2.24 ± 0.074 | -0.669 ± 0.081 |
| CCUAAGCAAUAUUACGGAAC | -3.35 ± 0.3 | -1.68 ± 0.24 |
| GGUUAGCAAUAUUACGGGCA | -0.0835 ± 0.083 | -0.182 ± 0.079 |
| AUAAAGCAAUAUUACGGCUU | -0.708 ± 0.1 | -0.569 ± 0.12 |
| AGAUAGCAAUAUUACGUUGU | -2.26 ± 0.08 | -2.39 ± 0.11 |
| CGGUAGCAAUAUUACGCGAA | -2.83 ± 0.25 | -1.28 ± 0.19 |
| AUCUAGCAAUAUUACGUUCA | -1.33 ± 0.099 | -0.242 ± 0.085 |
| GGUGAGCAAUAUUACGUGAU | -2.45 ± 0.13 | -1.71 ± 0.18 |
| CCCCAGCAAUAUUACGGCCA | -3.1 ± 0.2 | -2.16 ± 0.2 |
| CACGAGCAAUAUUACGAUGG | -1.81 ± 0.096 | -1.45 ± 0.14 |
| GUCAAGCAAUAUUACGAUAG | -4.6 ± 0.42 | -3.02 ± 0.47 |
| AACCAGCAAUAUUACGGCGC | -0.046 ± 0.068 | -0.103 ± 0.086 |
| CCUUAGCAAUAUUACGGUAG | -4.09 ± 0.28 | -2.1 ± 0.23 |
| GCGAAGCAAUAUUACGCAUG | -3.12 ± 0.44 | -2.76 ± 0.24 |
| UCUAAGCAAUAUUACGCGAA | -3.03 ± 0.2 | -1.69 ± 0.16 |
| ACAUAGCAAUAUUACGCACC | -1.83 ± 0.18 | 0.273 ± 0.18 |

| Sequence | self-splicing fitness (ln) (30 °C) | self-splicing fitness (ln) (37 °C) |
| --- | --- | --- |
| GAAUAGCAAUAUUACGUCAU | -1.07 ± 0.1 | -0.865 ± 0.13 |
| GGUAAGCAAUAUUACGCCAA | -2.07 ± 0.23 | -2.09 ± 0.24 |
| UGUAAGCAAUAUUACGGCUA | 0.0076 ± 0.11 | 0.536 ± 0.13 |
| CUUAAGCAAUAUUACGACGC | -3.04 ± 0.28 | -2.22 ± 0.4 |
| CAGAAGCAAUAUUACGGUGG | -1.26 ± 0.067 | -1.12 ± 0.079 |
| GAUAAGCAAUAUUACGCACC | -1.96 ± 0.16 | -0.327 ± 0.2 |
| UUCGAGCAAUAUUACGGGGC | -2.86 ± 0.27 | -1.48 ± 0.4 |
| UAUCAGCAAUAUUACGGCUA | 0.13 ± 0.085 | 0.848 ± 0.12 |
| UCGAAGCAAUAUUACGUGUA | -2.47 ± 0.17 | -1.71 ± 0.18 |
| UCUAAGCAAUAUUACGAAUC |  | -2.3 ± 0.45 |
| CGAUAGCAAUAUUACGCCAG | -1.35 ± 0.1 | -0.84 ± 0.15 |
| GGUGAGCAAUAUUACGCAGU | -2.13 ± 0.32 | -2.45 ± 0.41 |
| UGCCAGCAAUAUUACGACUG | -2.79 ± 0.12 | -2.14 ± 0.13 |
| AUCGAGCAAUAUUACGUAAU | -1.91 ± 0.12 | -1.25 ± 0.13 |
| AGCUAGCAAUAUUACGUCGA | -2.69 ± 0.2 | -1.9 ± 0.14 |
| GAUGAGCAAUAUUACGCCCU | -1.75 ± 0.15 | -1.4 ± 0.17 |
| AGCUAGCAAUAUUACGCGUC | -4.28 ± 0.36 | -2.08 ± 0.23 |
| CAGUAGCAAUAUUACGAUAU | -2.7 ± 0.2 | -1.88 ± 0.21 |
| GUUGAGCAAUAUUACGCUAC | -1.28 ± 0.49 |  |
| ACAUAGCAAUAUUACGCAUG | -2.85 ± 0.13 | -1.15 ± 0.12 |
| GUUGAGCAAUAUUACGCGAA | -3.43 ± 0.46 | -1.9 ± 0.43 |
| ACAAAGCAAUAUUACGCACC | -0.449 ± 0.19 | 0.128 ± 0.2 |
| AGGCAGCAAUAUUACGGUUA | -0.809 ± 0.077 | 0.285 ± 0.08 |
| UUCUAGCAAUAUUACGGGAG | -2.34 ± 0.19 | -1.47 ± 0.19 |
| CAUUAGCAAUAUUACGCGCC | -3.41 ± 0.32 | -2.26 ± 0.35 |

| Sequence | self-splicing fitness (ln) (30 °C) | self-splicing fitness (ln) (37 °C) |
| --- | --- | --- |
| AUUCAGCAAUAUUACGACUG | -1.47 ± 0.13 | -0.646 ± 0.15 |
| AUGAAGCAAUAUUACGCUGG | -1.42 ± 0.1 | -0.718 ± 0.12 |
| UUAAAGCAAUAUUACGGCUG | 0.262 ± 0.083 | 0.525 ± 0.12 |
| GGGCAGCAAUAUUACGGGAG | -3.27 ± 0.22 | -2.21 ± 0.2 |
| UAUCAGCAAUAUUACGCUAA | -0.647 ± 0.084 | 0.529 ± 0.099 |
| UCAUAGCAAUAUUACGAGGC | -2.86 ± 0.35 | -1.44 ± 0.2 |
| CAGCAGCAAUAUUACGAGGA | -2.63 ± 0.2 | -2.42 ± 0.23 |
| UGGAAGCAAUAUUACGUCGA | -1.02 ± 0.072 | -0.272 ± 0.089 |
| UCUUAGCAAUAUUACGGGCA | -0.387 ± 0.14 | -0.119 ± 0.16 |
| AGGCAGCAAUAUUACGCGAA | -1.54 ± 0.095 | -0.675 ± 0.13 |
| CAGGAGCAAUAUUACGGGCG | -0.762 ± 0.099 | 0.0758 ± 0.14 |
| ACUUAGCAAUAUUACGUGAU | -2.53 ± 0.1 | -1.37 ± 0.1 |
| CAGGAGCAAUAUUACGGUCA | -2.39 ± 0.3 | -1.56 ± 0.32 |
| GUGCAGCAAUAUUACGGUCG | -1.29 ± 0.053 | -0.792 ± 0.075 |
| UCACAGCAAUAUUACGACUC | -3.43 ± 0.12 | -1.44 ± 0.13 |
| GCAGAGCAAUAUUACGACAA | -1.8 ± 0.46 | -0.677 ± 0.43 |
| GCGAAGCAAUAUUACGGAAU | -3.17 ± 0.13 | -1.73 ± 0.13 |
| GCAAAGCAAUAUUACGGAGA | -2.82 ± 0.45 |  |
| GGUCAGCAAUAUUACGCCCA | -1.55 ± 0.21 | -0.611 ± 0.28 |
| CCCGAGCAAUAUUACGCGUA | -3.06 ± 0.21 | -2.05 ± 0.21 |
| AGUAAGCAAUAUUACGUCCU | -0.602 ± 0.21 | 0.854 ± 0.23 |
| CUUUAGCAAUAUUACGGAAU | -1.75 ± 0.23 | -1.73 ± 0.36 |
| UUUGAGCAAUAUUACGCGAU |  | -2.19 ± 0.4 |
| GGUGAGCAAUAUUACGUGUU |  | -1.87 ± 0.27 |
| AGAUAGCAAUAUUACGGCGG | -0.92 ± 0.12 | -1.04 ± 0.15 |

| Sequence | self-splicing fitness (ln) (30 °C) | self-splicing fitness (ln) (37 °C) |
| --- | --- | --- |
| GCGAAGCAAUAUUACGAGGA |  | -1.58 ± 0.31 |
| UGAUAGCAAUAUUACGCUAG | -1.09 ± 0.081 | -0.588 ± 0.078 |
| AAGAAGCAAUAUUACGGAGG | -3.92 ± 0.29 | -2.96 ± 0.32 |
| CCCUAGCAAUAUUACGGCCA | -2.88 ± 0.39 | -2.19 ± 0.26 |
| AUUCAGCAAUAUUACGAUAG | -3.99 ± 0.42 | -2.57 ± 0.26 |
| GUAGAGCAAUAUUACGAAUC | -1.28 ± 0.2 | -0.812 ± 0.29 |
| GCUUAGCAAUAUUACGCGCG | -0.0422 ± 0.094 | -0.149 ± 0.13 |
| UGCCAGCAAUAUUACGCUAG | -4.69 ± 0.39 | -1.35 ± 0.22 |
| UGACAGCAAUAUUACGUAUC | -2.91 ± 0.097 | -2.57 ± 0.13 |
| CAGAAGCAAUAUUACGUAGA | -3.54 ± 0.1 | -0.762 ± 0.075 |
| CGAGAGCAAUAUUACGAGAA |  | -1.69 ± 0.43 |
| GACAAGCAAUAUUACGUAUG | -2.86 ± 0.11 | -1.23 ± 0.088 |
| AAUAAGCAAUAUUACGUGGA | -3.22 ± 0.22 | -2.42 ± 0.19 |
| CAUCAGCAAUAUUACGCUCU | -3.31 ± 0.19 | -1.66 ± 0.17 |
| AUACAGCAAUAUUACGUGCA | -1.01 ± 0.083 | -0.648 ± 0.085 |
| ACGGAGCAAUAUUACGUAGC |  | -1.64 ± 0.21 |
| UUCCAGCAAUAUUACGAUUA | -0.297 ± 0.12 | -0.0509 ± 0.1 |
| CUAUAGCAAUAUUACGUUUU | -3.44 ± 0.16 | -2.61 ± 0.21 |
| GAGAAGCAAUAUUACGUUAA | -2.68 ± 0.2 | -2.18 ± 0.24 |
| AAUAAGCAAUAUUACGAGGA | -3.05 ± 0.43 | -1.94 ± 0.33 |
| CGAUAGCAAUAUUACGGCUU | -2.67 ± 0.17 | -1.51 ± 0.19 |
| ACCGAGCAAUAUUACGCAUA | -2.42 ± 0.21 | -2.57 ± 0.2 |
| AAAAAGCAAUAUUACGGACC | -0.351 ± 0.092 | -0.225 ± 0.11 |
